Assay results from patent publication US20200182883A1.

Biological target: HIV-1 IIIB p24 recombinant protein (HIV-1 IIIB)
Test: SPR, mAb immobilized on a Protein A chip, 0-200 nM p24, room temperature

B1: N60P55 (antibody, V domains shown)
VH: QVQLRESGPGLVKPSATLSLTCIVSGGSMSGYYWSWIRQPPGKGLEWIGHIDNNERTISSPSLNSRVTVSPDTSRNRFTLTLSSVTAADTATYYCARHVVYGGLDIWGQGTLVTVSS
VL: EIVLTQSPGTLSLSPGERASLSCRASDIVSINYFAWYQQKPGQAPRLLISGASVRATGIPDRFSGSGSGTDFTLTINRLEPEDVAVYYCQQHGSSPTFGQGTKVEIK
  Kd: 0.0917 nM
  koff: 6.55e-05 s⁻¹
  kon: 715000 M⁻¹ s⁻¹
